Experimental data from patent US20250366499A1, “Flavin-Containing Monoamine Oxidase MAO6sh Capable of Degrading Biogenic Amines and Application Thereof” (Jiangnan University, priority 2024, published 2025).
Where “and” joins values, the source holds several entries; their conditions need not be identical. Equal entries are not always repeated.

Tests used:
[1] = Application in commercially available low-salt soy sauce; assay type: biochemical; conditions: enzyme 200 ug/ml, 25° C., 24-48 h
Description: The recombinant monoamine oxidase MAO6^sh prepared in Example 3 was subjected to ultrafiltration and concentration to adjust the protein concentration to 200 ug/ml, and then added to the commercially available low-salt soy sauce for standing at a room temperature (25° C.) for 24-48 h.

[2] = Degradation in commercially available Huangjiu, spermidine; assay type: biochemical; conditions: Huangjiu 18% vol, enzyme 200 μg/ml added 1:1, about 28° C., 48 h
Description: (§1) The content of biogenic amines was detected by high-performance liquid chromatography (HPLC).
(§2) The recombinant monoamine oxidase MAO6^sh prepared in Example 3 was subjected to ultrafiltration and concentration to adjust the protein concentration to 200 μg/ml, and then added to the Huangjiu in a ratio of 1:1 for reacting at a room temperature of about 28° C. for 48 h. The control group was commercially available Huangjiu (18% vol) without enzymes, and the total content of biogenic amines in the control group was 136.2 mg·L^−1.

[3] = Degradation in commercially available Huangjiu, putrescine; assay type: biochemical; conditions: Huangjiu 18% vol, enzyme 200 μg/ml added 1:1, about 28° C., 48 h
Description: as §1, §2

[4] = Degradation in commercially available Huangjiu, phenylethylamine; assay type: biochemical; conditions: Huangjiu 18% vol, enzyme 200 μg/ml added 1:1, about 28° C., 48 h
Description: as §1, §2

[5] = Degradation in commercially available Huangjiu, cadaverine; assay type: biochemical; conditions: Huangjiu 18% vol, enzyme 200 μg/ml added 1:1, about 28° C., 48 h
Description: as §1, §2

[6] = Enzyme activity measurement (peroxidase-coupled, A510), substrate tryptamine; assay type: biochemical
Description: (§3) Enzyme activity measurement: The activity of a biogenic amine oxidase was measured by an indirect measurement method of […]. The amine oxidase acts on biogenic amines to degrade the biogenic amines into corresponding aldehydes and hydrogen peroxide. Under the presence of peroxidase, hydrogen peroxide reacts with 4-aminoantipyrine and 2,4,6-tribromo-3-hydroxybenzoic acid to generate a quinone dye. The product has a maximum absorption value at 510 nm, and the magnitude of the activity of the amine oxidase was linearly related to the color intensity of the product within a certain range, so that the activity of the amine oxidase can be measured by measuring the change in A510.
(§4) The reaction was carried out in a 96-well plate. The reaction system included 20 μl of enzyme solution (80 ug·mL^−1) and 100 μl of prepared solution (including 200 mmol·L^−1 potassium phosphate buffer with a pH of 7.6, 1.5 mmol·L^−1 4-aminoantipyrine, and 1 mmol·L^−1 2,4,6-tribromo-3-hydroxybenzoic acid). To initiate the reaction, 20 μL of biogenic amine solution (10 mmol·L^−1) and 70 µL of peroxidase (1.4 mg·mL^−1) were added, the absorbance was measured at 510 nm, the reaction temperature was 37° C., and the reaction time was 10 min. The change in absorbance of 0.01 per minute was defined as one enzyme activity unit (U).
(§5) Definition of specific activity of monoamine oxidase (U/mg): The enzyme activity per milligram of protein.
(§6) The catalytic ability of the monoamine oxidase MAO6^sh before and after purification was measured respectively using a single biogenic amine as a substrate. Systems containing putrescine, tyramine, histamine, cadaverine, phenylethylamine, tryptamine, spermine or spermidine with a concentration of 10 mmol/L were prepared respectively, the pure enzyme in Example 3 was added to the reaction system after adjusting the protein concentration (80 ug/mL, 20 uL) for reacting for 30 min at 37° C., and the results were shown in
(§7) After the enzyme solution purified in Example 3 was respectively incubated for 30 min in water baths at 15° C., 30° C., 35° C., 40° C., 45° C., 50° C., 55° C. and 60° C., the enzyme activity was measured according to the standard enzyme reaction system to determine the stable temperature range thereof, and the results were shown in FIG. 6. […] When the incubation temperature was 50° C., the residual enzyme activity for putrescine was 36.66%, the residual enzyme activity for cadaverine was 30.55%, and the residual enzyme activity for tryptamine was 26.34%.
(§8) The reaction system was the same as that of Example 5, except that ethanol with different concentrations (0-20% vol) was added respectively. […] When the concentration of ethanol was about 15 vol %, the relative enzyme activities of the monoamine oxidase MAO6^sh for putrescine, tryptamine and cadaverine were 9.57%, 11.21% and 13.67% respectively (FIG. 9).

[7] = Degradation in commercially available Huangjiu, tyramine; assay type: biochemical; conditions: Huangjiu 18% vol, enzyme 200 μg/ml added 1:1, about 28° C., 48 h
Description: as §1, §2

[8] = Enzyme activity measurement (peroxidase-coupled, A510), substrate cadaverine; assay type: biochemical
Description: as §3, §4, §5, §6, §7, §8

[9] = Enzyme activity measurement (peroxidase-coupled, A510), substrate putrescine; assay type: biochemical
Description: as §3, §4, §5, §6, §7
The reaction system was the same as that of Example 5, except that the pH of the reaction system was respectively adjusted to 3.0-9.0, the enzyme activity of the recombinant enzyme MAO6^sh under different pH reaction conditions was measured, the relative enzyme activity at each temperature was calculated respectively using a single biogenic amine as a substrate at the highest enzyme activity of 100%, and the results were shown in FIG. 7. When putrescine was used as a substrate, the optimal pH for the MAO6^sh was about 5.0-6.0. When the pH was within the range of 3.0-5.0, the enzyme activity […] rapidly with the increase of the pH. However, under alkaline conditions, the tolerance was stronger than the acid tolerance.
as §8

[10] = Application in fermented sausage; assay type: biochemical; conditions: enzyme 200 μg/ml added to raw material, versus sausage without enzyme
Description: 65-80% of lean meat and 20-35% of fat meat were taken by mass and cleaned, and bones, tendons, myolemma, lymph nodes, blood vessels, lesions and injury sites were removed. The fat meat and the lean meat were separated and cut into 4-5 cm meat pieces. The lean meat and about 5-8% of flake ice were placed in a chopper and chopped for 1-3 min. Based on the mass of pork, […] of sodium nitrite, 2-3% of table salt, 0.2-0.3% of compound phosphate, and 0.05-0.06% of sodium ascorbate were added. Spices, pepper, garlic, chili, and nutmeg were 0.2-0.3% of the raw meat. The recombinant monoamine oxidase MAO6^sh prepared in Example 3 was subjected to ultrafiltration and concentration to adjust the protein concentration to 200 μg/ml, and then added to the sausage raw material for chopping for 1-2 min, and then, the fat meat and about 5-8% of flake ice were added for chopping for 4-6 min. The sausage was pickled and then poured into the sausage casing. The sausage poured into the sausage casing was pickled at 4° C. for 12 h, then heated to 30° C., fermented until the pH decreased to about 5.1, and matured at 14-16° C. for 1-10 d.

[11] = Application in table vinegar; assay type: biochemical; conditions: enzyme 200 μg/ml, 25° C., 24-48 h
Description: The recombinant monoamine oxidase MAO6^sh prepared in Example 3 was subjected to ultrafiltration and concentration to adjust the protein concentration to 200 μg/ml, and then added to the commercially available table vinegar for standing at a room temperature (25° C.) for 24-48 h.

[12] = assay type: biochemical
Description: as §3
The reaction was carried out in a 96-well plate. […] To initiate the reaction, 20 μL of biogenic amine solution (10 mmol·L^−1) and 70 µL of peroxidase (1.4 mg·mL^−1) were added, the absorbance was measured at 510 nm, the reaction temperature was 37° C., and the reaction time was 10 min. The change in absorbance of 0.01 per minute was defined as one enzyme activity unit (U).
The catalytic ability of the monoamine oxidase MAO6^sh before and after purification was measured respectively using a single biogenic amine as a substrate. […]

[13] = Degradation in commercially available Huangjiu, total biogenic amines; assay type: biochemical; conditions: Huangjiu 18% vol (control 136.2 mg/L total), enzyme 200 μg/ml added 1:1, about 28° C., 48 h
Description: as §1, §2

[14] = Degradation in commercially available Huangjiu, tryptamine; assay type: biochemical; conditions: Huangjiu 18% vol, enzyme 200 μg/ml added 1:1, about 28° C., 48 h
Description: as §1, §2

[15] = Degradation in commercially available Huangjiu, spermine; assay type: biochemical; conditions: Huangjiu 18% vol, enzyme 200 μg/ml added 1:1, about 28° C., 48 h
Description: as §1, §2

[16] = Degradation in commercially available Huangjiu, histamine; assay type: biochemical; conditions: Huangjiu 18% vol, enzyme 200 μg/ml added 1:1, about 28° C., 48 h
Description: as §1, §2

[17] = crude enzyme solution, induction at 16° C.
[18] = pure enzyme 80 ug/mL, 10 mmol/L substrate, 37° C., 30 min

B1: MAO6^sh: recombinant flavin-containing monoamine oxidase from Saccharopolyspora hirsuta, amino acid sequence SEQ ID NO. 1, expressed in E. coli BL21/pET28a-MAO6^sh (protein, listed as Saccharopolyspora hirsuta)
chain: MDSYDVVVIGAGFAGLVAARELALRGHAVVVLEARDRIGGRTWTDERLGRRLEMGGTWVHWLQPHVWSEITRYDQRIEPSPSSQAVHWVAGGSAHRGSPEEFDALISPGMDQLARDSRAWFPLPYEPLHRADLDQVDHLSVADYFAGLDLNPVEREVTEGVWAEHFNGPAAVSGYTQAMRWCAAASGNWQLLHQATSGYRLTGGTAALAGAIAADGGAELHLGSVVASVSQDSGGATVSTTDGTSVRARRVICTLPLNVLGTVDFQPALPATKLAASAERTASQGLKTWIRVRGEVAPFTAYAPDSHDLTFVRPEYTVEGDTLLVAFGTRAADLAPDDVDGVARALRVWRDDLEVLEVSGHDWMTDDFSRETWPMQRPEQLTRYLAALQEPHGVVRFAGSDLATGWAGFIDGAVESGLRASRAVQDALRGPRG
reduction of content of biogenic amines [1]: effectively reduce the content of biogenic amines
Degradation rate, Spermidine [2]: 8.51%
Degradation rate, Putrescine [3]: 33.76%
Degradation rate, Phenylethylamine [4]: 5.78%
Degradation rate, Cadaverine [5]: 43.78%
residual enzyme activity for tryptamine ([6]; 30 min incubation at 50° C.): 26.34%
specific enzyme activity for tryptamine [6, 17]: 13.94 U/mg
relative enzyme activity for tryptamine ([6]; ethanol about 15 vol %): 11.21%
relative enzyme activity for tryptamine ([6]; ethanol lower than 10% vol): 30.27%
specific enzyme activity for tryptamine [6, 18]: 149.16 U/mg
Degradation rate, Tyramine [7]: 19.31%
residual enzyme activity for cadaverine ([8]; 30 min incubation at 50° C.): 30.55%
specific enzyme activity for cadaverine [8, 17]: 14.70 U/mg
relative enzyme activity for cadaverine ([8]; ethanol about 15 vol %): 13.67%
relative enzyme activity for cadaverine ([8]; ethanol lower than 10% vol): 35.78%
specific enzyme activity for cadaverine [8, 18]: 146.05 U/mg
residual enzyme activity for putrescine ([9]; 30 min incubation at 50° C.): 36.66%
specific enzyme activity for putrescine [9, 17]: 15.66 U/mg
relative enzyme activity for putrescine ([9]; ethanol about 15 vol %): 9.57%
relative enzyme activity for putrescine ([9]; ethanol lower than 10% vol): 29.44%
specific enzyme activity for putrescine [9, 18]: 161.59 U/mg
optimal pH ([9]; putrescine as substrate, reaction pH 3.0-9.0): 5.0-6.0
reduction of content of biogenic amines [10]: effectively reduce the content of biogenic amines
reduction of content of biogenic amines [11]: effectively reduce the content of biogenic amines
residual enzyme activity ([12]; 30 min incubation, incubation temperature exceeds 45° C.): about 30%
optimal temperature ([12]; most suitable substrate, reaction temperatures 25-60° C.): 45-50 °C
degradation rate for total biogenic amines [13]: 25.56%
Degradation rate, Tryptamine [14]: 54.07% and 54.06%
Degradation rate, Tryptamine ([14]; listed as recombinant enzyme): 54.07%
Degradation rate, Spermine [15]: 7.75%
Degradation rate, Histamine [16]: 21.44%
